Assay: yeast display, Sf9 membrane polyspecificity reagent, FACS + sequencing; frameworks hold sequencing errors
Outline: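 Using colony PCR, genes from sorted yeast display clones were amplified, then sequenced on MiSeq at 2 × 250 and filtered by CDR length. The clones had been stained with 10% biotinylated, detergent-solubilized Sf9 membrane reagent for 1 hour at 4 °C and sorted by FACS into low and high (top ~1%) gates on anti-HA and streptavidin fluorescence. Polyreactivity labels come from the gate of origin.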

## QVQLVESGGALVQAGGSLRLTSAASGFTFFRNAMRWYRQAPGKERELVAAINWSGGSTYYADSVKGRFTISRDNAKNTVYLQMHSLKPEDTAVYFCAADLSSTESDYWRQGTQVTVSS
  polyreactivity (PSR sort gate): high polyreactivity

## QVQLVESPGGLVQAGGSLRLSCAASGRTFYRNAMGWYRQAPGKERELVAVISLNGGRTYYADSVKGRFTISRDNAKNTVYLQMNSLKPEDTAVYYCNKLTGPVFTRGFYYWGQGTQVTVSS
  polyreactivity (PSR sort gate): high polyreactivity

## QVQLVESGGGLVQAGGSLRLSCAASGSIFDLNTMGWYRQAPGKERELVAAITWGGGSTYYADSVKGRFTISRDNAKNTVYLQMNSLKPEDTAVYYCNVTWSWGEKGRKAYGYWGQGTQVTVSS
  polyreactivity (PSR sort gate): low polyreactivity

## QVQLVESGGGLVQAGGSLRLSCAASGFTLYHYAMGWYRQAPGKERELVAAITTSGSRTYYADSVKGRFTISRDNAKNTVYLQMNSLKPEDTAVYYCNAVASSTEYDYWGQGTQVTVSS
  polyreactivity (PSR sort gate): high polyreactivity

## QVQLVESGGGLVQAGGSHRLSSAASGSTFAYHHMGWYRQAPGKEREFVADIRSGGNTNYADSVKGRFTISRDNAKKTVYLLMNSLNPEDTAVYYCATDGYRIDVYHPDYRYDYWGQGSQVTVSS
  polyreactivity (PSR sort gate): low polyreactivity

## QVQLVDSGGGLVQAGGSLRLSCAASGSTFPNNAMGRYRQAPGKERELVAAITTRGGSTYYADSVKGRFTISRDNAKNTVYLQMNSLKAEDTAVYYCAKRRRSAAPKYDYWGQGTQVTVSS
  polyreactivity (PSR sort gate): high polyreactivity

## QVQLVESGGGLVQAGGRLRLSSAASGSTFPYNAMGWYRQAPGKERELVADITSGSSTYYADSGKGRFTISRDNAKNTVYLQMNSLKPEDTAVYYCAATYFVWLNAGGRGYWGQGTQVTVSS
  polyreactivity (PSR sort gate): low polyreactivity

## QVQLVESGGGLVQAGGSLRLSCAASGRTFRGNAIGWYRQAPGKERELVAAIRWNGGSTYYADSVKGRFTISRDNAKNTVYLQMNSLKPEDTAVYYCAVSYWYSRYDYWGQGTQVTVSS
  polyreactivity (PSR sort gate): high polyreactivity

## QVQLVESGGGLVQAGGSLRLSCAASGFIFDYYAMGWYRQAPGKEREFVAAITWDGGSTYYADSVKGRFTISRDNAKNTVYLQMNSLKPEDTAVYYRAAETWGEYGYWGQGTQVTVSS
  polyreactivity (PSR sort gate): low polyreactivity

## QVQHVESGGGLVQAGGSLRLSCAASGYTFGYYAMGWYRQAPGKERELVASITERGGSTYYADSVKGRFTISRDNAKNTVYLQMNSLKPEDTAVYYCAADWDPSWWLFPTSSYDYWGQGTQVTVSS
  polyreactivity (PSR sort gate): low polyreactivity

## QVQLVESGGGLVQAGGSLRLSCAASGSIFASYDMGWYRQAPGKERELVARITFNGGSTYYADSVKGRFTISRDNAKNTVYLQMNSLKPEDTAVYYCANDYRYIFIYPYGWTRYDYWGQGTQVTVSS
  polyreactivity (PSR sort gate): low polyreactivity

## QVQLVESGGGLVQAGGSLRLSCAASGRIFDYNTMGWSRQAPGKERELVAAITGGTGSTYYADSVKGRFTISRDNAKNTVYLQMNSLKPEDTAVYYCAAGFHKRVTPEILYDYWGQGTQVTVSS
  polyreactivity (PSR sort gate): low polyreactivity

## QDQLVESRGGIVQAGGRLRLSCAASGSRFGGYGMGWYRQAPWKEREFVAVITKRGGSTYYADSVKGRFTISRDNAYNTVYLQMNSLKPEDTAVDYCNKVGYYASVLCYDYWGQGTQVTVSS
  polyreactivity (PSR sort gate): high polyreactivity

## QVQLVESGGGLVQAGGSLRLSCAASGSTFRYYAMGWYRQAPGEEREFVASISSTGTSRYYADSVKGRFTISRDNAKNTVYLQMNSLKPEDTAVYYCAARYISYYGYNHWGQGTQVTVSS
  polyreactivity (PSR sort gate): high polyreactivity

## QFQLVESGGGLVQAGGSLRLSCAASGSTFDPNAMGGYRQAPGKERELVASITSRGGSTYYADSVKGRFTISRDNAKNTVYLQMNSLKPEDTAVYYCAAVGGATYSWNGYSWYPWHNYWGQGTQVTVSS
  polyreactivity (PSR sort gate): low polyreactivity

## QVQLQESGGGLVQACGSQRLSCAASGSISEGQDMGWYRRAPGKEREFVAGIAPGATTYYADSVKGRFTISRDNAKNTVYLQMNSLKPEDTAVYYCAARSVTETDHDYWGQVTQVTVSS
  polyreactivity (PSR sort gate): low polyreactivity

## QVQLVESGGVLVQAGGSLRLSCAASGSIYRYYAMGWYRQAPGKERELVAAISWRGGSTYYADSVKGRFTISRDNAKNPVYLQMNSLKPEDTAVYYCAAELWVGTYGEYDYWGQGTQVTVSS
  polyreactivity (PSR sort gate): low polyreactivity

## QVQLVESGGGLVQAGGSLRLSCAASGIIFTLYAMGWYRQAPGKERELVATISTGGGTYYADSVKGRFTISRDNAKNTVYLQMNSLKPEDTAVYYCAAKRYWNFRYDYWGQGTQVTVSS
  polyreactivity (PSR sort gate): high polyreactivity

## QVQLVESGGGLVQAGGSLRLSCDASGLTFHRYAMGWYRQAPGKERELVAAINYSGGRTYYADSVKGRFTISRDNAKNTFYLQMNSLKPEDTAVYYCAAPRASGYFWGQGTQLTVSS
  polyreactivity (PSR sort gate): high polyreactivity

## QVQLVESGGGLVQAGGSLRLSCAASGSTFGPYTMGWYRQAPGKERELVATISSGGSTYYADSVKGRFTISRDNAKNTVYLQMNSLKPEDTAVYYCAARYWSIYDYWGQGTQVTVSS
  polyreactivity (PSR sort gate): low polyreactivity

## QVQLVDSGGGLVQAGGSLRLSCAASGNIFRANAMGWYRQAPGKERELVAAIRWRGVGTYYADSVKGRFTISRDYAKNTVYLQINSLKPEDTAVYYCAAYVKTGAYDYWGQGTLVTVSS
  polyreactivity (PSR sort gate): high polyreactivity

## QVQLVESGGGFVQAGGSLRLSCAASGSIFYYNAMGWYRQAPGKERELVAAIDWSGGITYYADSVKGRFTISRDNAKNTVYLQMNSLKPEDTAVYYCNVPMPPAKAEYGYWGQGTQVTVSS
  polyreactivity (PSR sort gate): high polyreactivity

## QVQLVESGGGLVQAGGSLRLSCAASGFTFGSNAMGWYRPAAGKERELVASITTRGGSTYYADSVKGRFTISRDNAKNTVYLQMNSLKPEDTAVYYCAARARYPNWTYYYWGQGTQVTVSS
  polyreactivity (PSR sort gate): high polyreactivity

## QVQLVESGGGLVQAGGSLRLSCAASGFTLYSYAMGWYRQAPGKERELVAAITRSGGITYYADSVKGRFTISRDNAKNTVYLQMNSLKPEDTAVYYCNAYRGGLSSEHYYWGQGTQVTVSS
  polyreactivity (PSR sort gate): high polyreactivity

## QVQLVESGGGLVQAGGSLRLSCAASGITFEGYAMGWYRQAPGKERELVAAITWSGGRTYYADSVKGRFTISRDNAKNTVYLQMNSLKPEDTAVYYCAADVSDWSNQYFDSYLRMDYWGQGTQVTVSS
  polyreactivity (PSR sort gate): low polyreactivity

## QVQLVESGGGLVQAGGSLRLSCAASGSIFYYNAMGWYRQAPGKERELVAAISFRASSTYYADSVKGRFTISRDNAKNTVYLQMNSLKPEDTAVYYCASSHWHYIPRHHPYGDDYCGQGTQVTVSS
  polyreactivity (PSR sort gate): low polyreactivity

## QDQLVESGGGLVQAGGSLRLSCAASGSTFEVYAMGWYRQAPGKERELVAGITRGGSTNYADSVKGRFTISRDNAKNTVYLQMNSLKPEDTAVYYCAAPKYLGTDEYDYWGQGTQVTVSS
  polyreactivity (PSR sort gate): low polyreactivity

## QVQLVESGVGIVQAGGSLRLICAASGSTFTIYAMGWYRQAPGKERELVAAITWNGGSTYYADSVKGRFTISRDNAKKTVYLQMNSLKPEDTAVYYCAAKFRYQYVRVAREYYYWGQGTQVTVSS
  polyreactivity (PSR sort gate): high polyreactivity

## QVQLVESGGVLVQAGCSIRLSCSASGLTFIQYAMGWYRQAPGKERELVAAINSGASTRYADSVKGRFTISRDNAKNTVYLQMNSLKPEDTAVYYCNARLRRYTNRYYKYYYWGQGTQVNVSS
  polyreactivity (PSR sort gate): high polyreactivity

## QVQLVESGGGLVQAGGSLRLSCAASGFIFTRYAMGWYRQAPGKERELVARISGGGGSTYYADSVKGRFTISRDNAKNTVYLQMNSLKPEDTAVYYCNARWYPYISRYGIEARYDYWGQGTQVTVSS
  polyreactivity (PSR sort gate): high polyreactivity

## QVQLVESGGGLVQAEGSLRLSCAASGFIFRYNAMGWYRQAPGKERELVAAITSGGSTNYADSVKGRFTISRDNAKNTVYLQMNSLKPEDTAVYYCNKYRPYGRIYHLAYGRDYWGQGTQVTVSS
  polyreactivity (PSR sort gate): high polyreactivity

## QVQLVESGGGLVQAGGSLRLSCAASGFTFKGYAMGWYRQAPGKERELVAAITRGGSTYYADSVKGRFTISRDNAKNTVYLQMNSLKPEDTAVYYCAARGRGHGTTPNDYWGQGTQVTVSS
  polyreactivity (PSR sort gate): high polyreactivity

## QDQLVESGGGLVQAGGSLRLICAASGSILSGYAMGWYRQAPGKERELVAAITSGGDTNYADSVKGRFTISRDNAKNTVYLQMNSLKPEDTAVYYCNRRGDFRIAYYDPMDYWGQGTQVTVSS
  polyreactivity (PSR sort gate): low polyreactivity

## QVQLVESGGGLVQAGGSLRLSCAASGRIFVTNTMGWYRQAPGKERELVAAIDNSAGSTYYADSVKGRFTISRDNAKNTVYLQMNSLKPEDTAVYYCAADYPPYYGYGYWGQGTQVTVSS
  polyreactivity (PSR sort gate): low polyreactivity

## QVQLVESGGGLVQAGGSLRLSCDASGSILPGYAMGWYRQEPGKEMELVAAISYRGTSTYYADSVKGRFTISRDNAKNTFYLQMNSLKPEDTAVYYCAAGGSWFRYPPSMDYWGQGTQVTVSS
  polyreactivity (PSR sort gate): high polyreactivity

## PVQLVESGGGLVQAGGSLRLSCAASGSIFFGYAMGWYRQAPGKERELVAAFNGSVITSYADSVKGRFTISRDNAKNPVYVQMNSLKPEDTAYYCNTGSTWGAVIANYDHWGQGTQVTVSS
  polyreactivity (PSR sort gate): low polyreactivity

## QVQLVESGGGLVQAGGSLRLSCAASGGTFGRYAMGWYRQAPGKERELVASITTGGRTNYADSVKGRFTISRDNAKNTVYLQMNSLKPEDTAVYYCAKKRYGYPVPFYYWGQGTQVTVSS
  polyreactivity (PSR sort gate): high polyreactivity

## QVQLVESGGGLVQAGGSLRLSCAASGLIFPYYTMGWYRQAPGKERELVAAISWRGGGTFYADSVKGRFTISRDNAKNTVYLQMNSLNPEDTAVYYCAAQLYPYRWYYWGQGTQVTVSS
  polyreactivity (PSR sort gate): high polyreactivity

## QVQLVESGGGLVQAGGSLRLSCAASGSTFFGYAMGRYRQAPGKERELVAAISYRGGSTYYADSVKGRFTISRDNAKNTVYLQMNSLKPEDTAVYYCAATHGPTGSYYWGQGTQVTVSS
  polyreactivity (PSR sort gate): high polyreactivity

## QVQLVESGGGLVQAGGSLRLSCAASGSTFAIYAMGWYRQAPGKERELVASISGGSTNYADSVKGRFTISRDNAKNTVYLQMNSLKPEDTAVYYCAARGALHHWYSYDYWGQGTQVTVSS
  polyreactivity (PSR sort gate): low polyreactivity

## QVQLVESGGGLVQAGGSLRLSCAPSGNIFETYAMGWYRPAPGKERELVAVITRGGSTYYADSVKGRFTISRDNAKNTVYLQMNSLKPEDTAVYYCARDAYDDWYGLTDDKSDYWGQGTQVTLSS
  polyreactivity (PSR sort gate): low polyreactivity

## QVQLVESGGGLVQAGGSLRLSCAASGRTFGIYTMGWYRQAPGKERKLVAAISKRGSSTYYADSVKGRFTISRDNAKNTVYLQMNSLKPEDTAVYYCNARSWYIRGSQEYYYWGQGTQVTVSS
  polyreactivity (PSR sort gate): high polyreactivity

## QVQLVESGGGLVQAGGSLRLSCAASGFTFYKNTMGWYRQAPGKERELVAAISGSGGRTYYADSVKGRFTISRDNAKNTVYLQMNSLKPEDTAVYYCNAAARYRWQYDYSLYEYGHWGQGTQVTVSS
  polyreactivity (PSR sort gate): high polyreactivity
